pKd: −log10 of the molar value.

This passage reports Kd results from publication PMC3140484.

Series [1] concerns CopR (CgtR9) response regulator, preincubated with acetylphosphate (Corynebacterium glutamicum ATCC 13032). The series is described as follows: EMSA. The note with it: 50 mM Tris-HCl pH 7.5, 50 mM KCl, 10 mM MgCl2, 0.5 mM EDTA, 10% glycerol, room temperature 30 min; 50 mM acetylphosphate preincubation (60 min) for P2; DNA ….
Series [2] deals with CopR (CgtR9) response regulator, unphosphorylated (Corynebacterium glutamicum ATCC 13032). In words: EMSA. To be noted: unphosphorylated; apparent Kd; 50 mM Tris-HCl pH 7.5, 50 mM KCl, 10 mM MgCl2, 0.5 mM EDTA, 10% glycerol, room temperature 30 min; 50 mM acetylphosphate preincubation (60 min) for P2; DNA ….

Regarding copR promoter Kd probe, 90 bp, the negative logarithm of the Kd (pKd) (usually −log10 of the Kd, conventionally taken in molar units) is 6.40 in series [1] and 5.64 in series [2].
